According to paper PMC4969574 (The EMBO Journal, 2016):
“And” between values parts separate entries of the source, which are not always exact repeats. Equal values may be shown once.

T1: TssA1 fused to the adenylate cyclase T25 or T18 subunit (P. aeruginosa, UniProt Q9I750 1-344)
T1 sequence: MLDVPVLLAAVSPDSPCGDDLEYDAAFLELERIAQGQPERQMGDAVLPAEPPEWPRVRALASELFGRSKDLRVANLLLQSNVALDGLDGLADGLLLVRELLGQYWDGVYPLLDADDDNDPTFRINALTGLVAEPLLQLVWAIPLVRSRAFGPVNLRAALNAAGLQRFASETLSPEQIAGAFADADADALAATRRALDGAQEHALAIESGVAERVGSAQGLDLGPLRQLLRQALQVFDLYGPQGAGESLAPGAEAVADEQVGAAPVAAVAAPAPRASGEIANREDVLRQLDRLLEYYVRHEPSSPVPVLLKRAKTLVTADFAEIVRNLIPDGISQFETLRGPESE

B1: His6-TssA1 (natural protein)
chain: MLDVPVLLAAVSPDSPCGDDLEYDAAFLELERIAQGQPERQMGDAVLPAEPPEWPRVRALASELFGRSKDLRVANLLLQSNVALDGLDGLADGLLLVRELLGQYWDGVYPLLDADDDNDPTFRINALTGLVAEPLLQLVWAIPLVRSRAFGPVNLRAALNAAGLQRFASETLSPEQIAGAFADADADALAATRRALDGAQEHALAIESGVAERVGSAQGLDLGPLRQLLRQALQVFDLYGPQGAGESLAPGAEAVADEQVGAAPVAAVAAPAPRASGEIANREDVLRQLDRLLEYYVRHEPSSPVPVLLKRAKTLVTADFAEIVRNLIPDGISQFETLRGPESE
B2: TssK1 fused to the adenylate cyclase T25 or T18 subunit (natural protein)
chain: MSWNNRVVWSEGMFLRPQHFQQHDRYLETLVDGRCRSLLAGGWGFSELKLDDALLTQGKLAIVSARGVLPDGTPFNIPADDPAPAPLNVEESLRDGIVYLGLPLKRVGTRDTVEEGEALGGARYVSQVQEVRDDNAAFESRAPVALGSQAFRLLTERDGLGEYAAVGVARVREKRADQALSLDEDYLPPVLDIAAAPPLASFAKELLGLLHQRGEALAGRVVASSAGGASEIADFLLLQLVNRAEALTGHLSRVRPLHPQELYRELVALAGEFCTFTASQRRPEEYPVYNHDDLAASFAPVMLALRQALATVIDAKAIAIPIVEKAYGVHVAMLSDRSLIDNASFVLVVRADVPGESLRGHFPQQAKVGSVEHIRDLVNLQLPGIGLLPMPVAPRQIPYHAGSTYFELDRGSAHWKQLTHSGGFAFHIAGQFPGLNLAFWAIRG

How the values were obtained:
[1] = target: the molecule itself; test: AUC; sedimentation velocity of His6-TssA1 at 0.8, 0.56 and 0.32 mg/ml, 20,000 and 30,000 rpm, 20 °C, 25 mM Tris-HCl pH 7.5, 200 mM NaCl; c(s) by SEDFIT
[2] = target: T1, TssA1 fused to the adenylate cyclase …; test: two-hybrid; bacterial two-hybrid (BTH), T25 and T18 adenylate cyclase fusions in E. coli DHM1; β-galactosidase activity in Miller units and X-gal LB agar plates; conditions: partners not purified

Row | Binder | stoichiometry N [1] | fold above control (β‐galactosidase activity) [2] [fold]
1 | B1 | 12 and 24 | –
2 | B2 | – | ~20
